Data as given in article PMC9439264.

Target: HA trimer of A/Beijing/262/1995 (H1N1), thrombin- and trypsin-treated, for the immune complex (Influenza A virus A/Beijing/262/1995 (H1N1))
Experiment: cryo-EM structure; 12H5 Fab with thrombin- and trypsin-treated BJ/1995 HA trimer

Question: Which stoichiometry N does the source give for “HA trimer of A/Beijing/262/1995 (H1N1), thrombin- and trypsin-treated, for the immune complex” here?
Answer: Its stoichiometry N is 3.
